The values that follow come from paper PMC5477842.

The experiment deals with Truncated rat Eag1 (rEag1Δ; Kv10.1 with residues 773-886 removed) (rat) (UniProt Q63472). Put plainly: cryo-EM structure.

Consider “calmodulin (from UniProt P0DP23 1-149) (natural protein)”, for which the stoichiometry N (CaM molecules per rEag1 tetramer) is 4.
